{"source": "patent US20240209100A1", "about": "(DIAGONAL THERAPEUTICS, published 2024)", "binders": {"B1": {"name": "DGL169 (bispecific antibody)", "heavy 1": "QVQLVESGGGLVQAGGSLRLSCAASGRTFSSYTMGWFRQAPGKEREFVAAISWSAGRTYYADSVKGRFTISRDNAKNTVYLQMNSLKPEDTAVYFCAAEEAPDWAPIDCSGYGCLSLYDYWGQGTQVTVSSGGGSQVQLVESGGGLVQAGGSLRLSCAASQTGFNMNRMGWYRQAPGKQRELVATITGGGSTTYADSVKGRFDISRGNVENNLYLQMNSLKPEDTAVYYCNALLFGRDYWGQGTQVTVSSDKTHTCPPCPAPEAAGGPSVFLFPPKPKDTLMISRTPEVTCVVVDVSHEDPEVKFNWYVDGVEVHNAKTKPREEQYNSTYRVVSVLTVLHQDWLNGKEYKCKVSNKALPAPIEKTISKAKGQPREPQVCTLPPSRDELTKNQVSLSCAVKGFYPSDIAVEWESNGQPENNYKTTPPVLDSDGSFFLVSKLTVDKSRWQQGNVFSCSVMHEALHNHYTQKSLSLSPG", "heavy 2": "not shown"}, "B2": {"name": "DGL166 (bispecific antibody)", "heavy 1": "EVQLVESGGGLVQPGGSLRLSCAASGFFLDDYVLGWFRQAPGKPREGVSCISSRGRYLNYAETVKGRFTISRSNAKNTVYLQMNNLEPEDTAVYYCAAVRRVSEVCKLAEDDFASWGQGTQVTVSSGGGSQVQLVESGGGLVQAGDSLRLSCVASERTFSSYTMGWFRQAPGKEREFTAALSWWNGGISTAYADSVKGRFTISRDNAKNTVYLQMNSLKTEDTALYYCAAARDRMPRADEYDYWGQGTQVTVSSDKTHTCPPCPAPEAAGGPSVFLFPPKPKDTLMISRTPEVTCVVVDVSHEDPEVKFNWYVDGVEVHNAKTKPREEQYNSTYRVVSVLTVLHQDWLNGKEYKCKVSNKALPAPIEKTISKAKGQPREPQVCTLPPSRDELTKNQVSLSCAVKGFYPSDIAVEWESNGQPENNYKTTPPVLDSDGSFFLVSKLTVDKSRWQQGNVFSCSVMHEALHNHYTQKSLSLSPG", "heavy 2": "not shown"}, "B3": {"name": "DGL170 (bispecific antibody)", "heavy 1": "QVQLVESGGGLVQAGGSLRLSCVASGTFFQIHVMGWYRQAPGKQRELVAFIINNGGTRYADSVKGRFTISRDYAKNTVYLQMNSLKPEDTAVYYCNTEGTYRGRYSTDNWGQGTQVTVSSDKGPSVFPLAPEPKSSQVQLVESGGGLVQAGGSLRLSCAASGRTFSKHAMGWFRQAPGKEREFVAAIDWSGGSTYYADSVKGRFTISRDNAKNTVYLQMDSLKPEDTAVYYCAADSYTDYAQLWLPELESEYDYWGQGTQVTVSSDKTHTCPPCPAPEAAGGPSVFLFPPKPKDTLMISRTPEVTCVVVDVSHEDPEVKFNWYVDGVEVHNAKTKPREEQYNSTYRVVSVLTVLHQDWLNGKEYKCKVSNKALPAPIEKTISKAKGQPREPQVCTLPPSRDELTKNQVSLSCAVKGFYPSDIAVEWESNGQPENNYKTTPPVLDSDGSFFLVSKLTVDKSRWQQGNVFSCSVMHEALHNHYTQKSLSLSPG", "heavy 2": "not shown"}, "B4": {"name": "DGL172 (bispecific antibody)", "heavy 1": "QLQLVESGGGLVQAGGSLRLSCAASRSITFSHNVMGWYRQAPGKQRELVASIGSGGSTNYVDSVKGRATISRDNAKKTVYLQMNSLKPEDTAVYYCGVVVGVYRGSLGQGTQVTVSSDKGPSVFPLAPEPKSSQVQLQESGGGLVQAGGSLRLSCQASGSIATINGMRWWRQAPGKERELVATINSGGSSNYADSVKGRFTISRDNASHTVSLQMNSLKPEDTAVYYCNLYVYSQFPPFSVDDYWGQGARVTVSSDKTHTCPPCPAPEAAGGPSVFLFPPKPKDTLMISRTPEVTCVVVDVSHEDPEVKFNWYVDGVEVHNAKTKPREEQYNSTYRVVSVLTVLHQDWLNGKEYKCKVSNKALPAPIEKTISKAKGQPREPQVCTLPPSRDELTKNQVSLSCAVKGFYPSDIAVEWESNGQPENNYKTTPPVLDSDGSFFLVSKLTVDKSRWQQGNVFSCSVMHEALHNHYTQKSLSLSPG", "heavy 2": "not shown"}, "B5": {"name": "DGL168 (bispecific antibody)", "heavy 1": "QVQLVESGGGLVQAGGSLRLSCAASGRTFSSYNMGWFRQAPGKERESVAAISWSGGSSYYADSVKGRFTISRDNAKPTVYLQMNSLKPEDTAVYYCAADRDSEEWDGSSWFFKSDYWGQGTQVTVSSGGGSQVQLVESGGGLVQTGGPLRLSCAASGGTFSRYTMGWFRQAPGKEREYVAAISWRGSSIYYADAVKGRFTISRDSAKSTVYLQMNNLNSDDTAVYYCAADRTDLPRNAGEYGYWGQGTQVTVSSDKTHTCPPCPAPEAAGGPSVFLFPPKPKDTLMISRTPEVTCVVVDVSHEDPEVKFNWYVDGVEVHNAKTKPREEQYNSTYRVVSVLTVLHQDWLNGKEYKCKVSNKALPAPIEKTISKAKGQPREPQVCTLPPSRDELTKNQVSLSCAVKGFYPSDIAVEWESNGQPENNYKTTPPVLDSDGSFFLVSKLTVDKSRWQQGNVFSCSVMHEALHNHYTQKSLSLSPG", "heavy 2": "not shown"}, "B6": {"name": "DGL165 (bispecific antibody)", "heavy 1": "QVQLVESGGGLVQAGGSLRLSCAASGRTFSSYTMGWFRQAPGKEREFVAAISWSAGRTYYADSVKGRFTISRDNAKNTVYLQMNSLKPEDTAVYFCAAEEAPDWAPIDCSGYGCLSLYDYWGQGTQVTVSSGGGSEVQLVESGGGLVQAGGSLRLSCAASGRTFRNYHMGWFRQAPGQEREFVAAISSSGGKTSYPDSVNGRFTISRDNAKNTVYLQMNNLKVEDTAVYYCAADPRYWVAAGGSEPENVEVWGQGTLVTVSSDKTHTCPPCPAPEAAGGPSVFLFPPKPKDTLMISRTPEVTCVVVDVSHEDPEVKFNWYVDGVEVHNAKTKPREEQYNSTYRVVSVLTVLHQDWLNGKEYKCKVSNKALPAPIEKTISKAKGQPREPQVCTLPPSRDELTKNQVSLSCAVKGFYPSDIAVEWESNGQPENNYKTTPPVLDSDGSFFLVSKLTVDKSRWQQGNVFSCSVMHEALHNHYTQKSLSLSPG", "heavy 2": "not shown"}, "B7": {"name": "DGL164 (bispecific antibody)", "heavy 1": "QVQLVESGGGLVQAGGSLRLSCAASGRTFSSYTMGWFRQAPGKEREFVAAISWSAGRTYYADSVKGRFTISRDNAKNTVYLQMNSLKPEDTAVYFCAAEEAPDWAPIDCSGYGCLSLYDYWGQGTQVTVSSDKGPSVFPLAPEPKSSQVQLVESGGGLVQAGGSLRLSCAASQTGFNMNRMGWYRQAPGKQRELVATITGGGSTTYADSVKGRFDISRGNVENNLYLQMNSLKPEDTAVYYCNALLFGRDYWGQGTQVTVSSDKTHTCPPCPAPEAAGGPSVFLFPPKPKDTLMISRTPEVTCVVVDVSHEDPEVKFNWYVDGVEVHNAKTKPREEQYNSTYRVVSVLTVLHQDWLNGKEYKCKVSNKALPAPIEKTISKAKGQPREPQVCTLPPSRDELTKNQVSLSCAVKGFYPSDIAVEWESNGQPENNYKTTPPVLDSDGSFFLVSKLTVDKSRWQQGNVFSCSVMHEALHNHYTQKSLSLSPG", "heavy 2": "not shown"}, "B8": {"name": "DGL171 (bispecific antibody)", "heavy 1": "EVQLVESGGGLVQAGGSLRLSCAASGSISSRDTMGWYRQAPGKQREMVAVISSSGNTNYADSVLGRFTISRDNAKNTVDLQMNSLKPEDTAIYKCYAHRTYGVDYWGKGTLVTVSSDKGPSVFPLAPEPKSSQVQLVESGGGLVQAGGSLRLSCAASGRTFSSYTMGWFRQAPGKEREFVAAISWSAGRTYYADSVKGRFTISRDNAKNTVYLQMNSLKPEDTAVYFCAAEEAPDWAPIDCSGYGCLSLYDYWGQGTQVTVSSDKTHTCPPCPAPEAAGGPSVFLFPPKPKDTLMISRTPEVTCVVVDVSHEDPEVKFNWYVDGVEVHNAKTKPREEQYNSTYRVVSVLTVLHQDWLNGKEYKCKVSNKALPAPIEKTISKAKGQPREPQVCTLPPSRDELTKNQVSLSCAVKGFYPSDIAVEWESNGQPENNYKTTPPVLDSDGSFFLVSKLTVDKSRWQQGNVFSCSVMHEALHNHYTQKSLSLSPG", "heavy 2": "not shown"}, "B9": {"name": "DGL167 (bispecific antibody)", "heavy 1": "QVQLVESGGGLVQAGGSLRLSCAASGRTFSKHAMGWFRQAPGKEREFVAAIDWSGGSTYYADSVKGRFTISRDNAKNTVYLQMDSLKPEDTAVYYCAADSYTDYAQLWLPELESEYDYWGQGTQVTVSSGGGSQVQLQESGGGLVQAGGSLKLSCQASGLTFKRNTMGWFRQAPGKEREFVAHFLWTGGETDYADAVKGRFTISRDNAKNTVYLQMNSLKPEDTAVYFCAANYAGYRIDGYQYWGQGTQVTVSSDKTHTCPPCPAPEAAGGPSVFLFPPKPKDTLMISRTPEVTCVVVDVSHEDPEVKFNWYVDGVEVHNAKTKPREEQYNSTYRVVSVLTVLHQDWLNGKEYKCKVSNKALPAPIEKTISKAKGQPREPQVCTLPPSRDELTKNQVSLSCAVKGFYPSDIAVEWESNGQPENNYKTTPPVLDSDGSFFLVSKLTVDKSRWQQGNVFSCSVMHEALHNHYTQKSLSLSPG", "heavy 2": "not shown"}}, "molecular_target": "T1, IL-18 receptor (IL-18Rα/IL-18Rβ) overexpressed on HEK-Blue IL-18 cells (Homo sapiens (Human), UniProt Q13478 19-541; O95256 20-599)", "T1 sequence 1": "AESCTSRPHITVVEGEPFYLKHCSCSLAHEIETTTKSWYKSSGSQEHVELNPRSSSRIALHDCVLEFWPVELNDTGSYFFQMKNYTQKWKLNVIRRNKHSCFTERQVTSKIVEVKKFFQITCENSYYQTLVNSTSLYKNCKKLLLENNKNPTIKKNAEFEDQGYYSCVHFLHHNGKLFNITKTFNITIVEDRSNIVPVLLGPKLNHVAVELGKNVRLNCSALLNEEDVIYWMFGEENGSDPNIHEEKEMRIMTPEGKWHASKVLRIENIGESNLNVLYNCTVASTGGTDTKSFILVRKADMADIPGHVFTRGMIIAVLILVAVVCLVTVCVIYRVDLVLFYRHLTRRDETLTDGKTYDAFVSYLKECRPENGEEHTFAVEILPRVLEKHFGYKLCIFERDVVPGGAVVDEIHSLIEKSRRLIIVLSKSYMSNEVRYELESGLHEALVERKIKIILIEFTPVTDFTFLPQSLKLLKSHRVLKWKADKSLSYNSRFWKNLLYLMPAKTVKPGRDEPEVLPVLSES", "T1 sequence 2": "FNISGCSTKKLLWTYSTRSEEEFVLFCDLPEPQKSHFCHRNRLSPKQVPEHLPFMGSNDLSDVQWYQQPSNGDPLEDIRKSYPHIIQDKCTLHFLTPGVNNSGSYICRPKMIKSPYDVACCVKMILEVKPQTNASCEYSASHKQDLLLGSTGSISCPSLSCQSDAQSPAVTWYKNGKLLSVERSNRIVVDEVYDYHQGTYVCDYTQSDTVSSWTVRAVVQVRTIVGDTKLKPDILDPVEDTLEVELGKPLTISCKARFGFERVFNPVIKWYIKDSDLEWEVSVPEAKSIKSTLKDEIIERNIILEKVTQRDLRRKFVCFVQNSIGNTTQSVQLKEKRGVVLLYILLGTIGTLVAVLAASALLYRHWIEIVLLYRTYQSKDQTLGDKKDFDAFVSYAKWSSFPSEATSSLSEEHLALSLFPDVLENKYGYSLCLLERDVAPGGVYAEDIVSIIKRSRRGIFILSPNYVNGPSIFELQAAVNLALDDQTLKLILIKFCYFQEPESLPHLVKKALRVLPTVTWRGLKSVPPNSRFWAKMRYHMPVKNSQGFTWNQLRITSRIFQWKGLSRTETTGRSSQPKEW", "assay": "cell-based or functional assay", "data": [{"binder": "B1", "values": [{"measurement": "HEK-Blue IL-18: Abs 405", "result": 0.22, "unit": "Abs"}, {"measurement": "HEK-Blue IL-18: Fold over Background", "result": 1.8, "unit": "fold"}]}, {"binder": "B2", "values": [{"measurement": "HEK-Blue IL-18: Abs 405", "result": 0.12, "unit": "Abs"}, {"measurement": "HEK-Blue IL-18: Fold over Background", "result": 1, "unit": "fold"}]}, {"binder": "B3", "values": [{"measurement": "HEK-Blue IL-18: Abs 405", "result": 0.23, "unit": "Abs"}, {"measurement": "HEK-Blue IL-18: Fold over Background", "result": 1.9, "unit": "fold"}]}, {"binder": "B4", "values": [{"measurement": "HEK-Blue IL-18: Abs 405", "result": 1.02, "unit": "Abs"}, {"measurement": "HEK-Blue IL-18: Fold over Background", "result": 8.5, "unit": "fold"}]}, {"binder": "B5", "values": [{"measurement": "HEK-Blue IL-18: Abs 405", "result": 0.62, "unit": "Abs"}, {"measurement": "HEK-Blue IL-18: Fold over Background", "result": 5.1, "unit": "fold"}]}, {"binder": "B6", "values": [{"measurement": "HEK-Blue IL-18: Abs 405", "result": 0.19, "unit": "Abs"}, {"measurement": "HEK-Blue IL-18: Fold over Background", "result": 1.6, "unit": "fold"}]}, {"binder": "B7", "values": [{"measurement": "HEK-Blue IL-18: Abs 405", "result": 0.28, "unit": "Abs"}, {"measurement": "HEK-Blue IL-18: Fold over Background", "result": 2.3, "unit": "fold"}]}, {"binder": "B8", "values": [{"measurement": "HEK-Blue IL-18: Abs 405", "result": 0.53, "unit": "Abs"}, {"measurement": "HEK-Blue IL-18: Fold over Background", "result": 4.3, "unit": "fold"}]}, {"binder": "B9", "values": [{"measurement": "HEK-Blue IL-18: Abs 405", "result": 0.66, "unit": "Abs"}, {"measurement": "HEK-Blue IL-18: Fold over Background", "result": 5.5, "unit": "fold"}]}]}
